Reference: publication doi:10.64898/2025.12.17.694835

What was measured:
[1] = target: HALOGluA2(R) (GluA2(R) subunit with HALO domain inserted between signal peptide and N-terminal domain) (rat) (UniProt P19491); test: FRET or BRET
[2] = target: HALOGluA3 (GluA3 subunit with HALO domain inserted between signal peptide and N-terminal domain) (rat) (UniProt P19492); test: FRET or BRET
Sequence of HALOGluA3 (GluA3 subunit with HALO domain inserted between signal peptide and N-terminal domain) (rat) (P19492 23-888): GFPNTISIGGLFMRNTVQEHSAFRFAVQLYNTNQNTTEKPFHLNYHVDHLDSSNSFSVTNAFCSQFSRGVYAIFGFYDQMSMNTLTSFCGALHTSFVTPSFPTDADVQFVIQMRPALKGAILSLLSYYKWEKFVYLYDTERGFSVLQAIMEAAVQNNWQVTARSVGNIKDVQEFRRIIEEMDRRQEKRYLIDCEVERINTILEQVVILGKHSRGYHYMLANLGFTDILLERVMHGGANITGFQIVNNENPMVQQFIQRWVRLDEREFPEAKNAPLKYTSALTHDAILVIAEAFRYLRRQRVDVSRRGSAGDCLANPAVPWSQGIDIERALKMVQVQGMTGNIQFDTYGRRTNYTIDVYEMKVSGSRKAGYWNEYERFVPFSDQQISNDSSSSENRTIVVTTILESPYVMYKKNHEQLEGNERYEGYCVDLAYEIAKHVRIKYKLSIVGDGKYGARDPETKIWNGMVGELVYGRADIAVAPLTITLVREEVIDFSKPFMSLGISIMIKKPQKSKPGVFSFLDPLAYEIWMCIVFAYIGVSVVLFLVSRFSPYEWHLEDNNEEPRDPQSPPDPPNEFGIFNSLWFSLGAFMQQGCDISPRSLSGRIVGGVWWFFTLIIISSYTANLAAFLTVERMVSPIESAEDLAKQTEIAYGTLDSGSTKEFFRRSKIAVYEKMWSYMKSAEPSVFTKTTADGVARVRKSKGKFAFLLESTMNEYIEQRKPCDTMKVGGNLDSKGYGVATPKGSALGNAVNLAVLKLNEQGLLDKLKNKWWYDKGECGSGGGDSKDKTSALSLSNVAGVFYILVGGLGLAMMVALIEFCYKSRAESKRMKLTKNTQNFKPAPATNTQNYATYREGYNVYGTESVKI

Sequence of CFPGluA1 (GluA1 subunit with CFP inserted between signal peptide and N-terminal domain) (P19490 19-907): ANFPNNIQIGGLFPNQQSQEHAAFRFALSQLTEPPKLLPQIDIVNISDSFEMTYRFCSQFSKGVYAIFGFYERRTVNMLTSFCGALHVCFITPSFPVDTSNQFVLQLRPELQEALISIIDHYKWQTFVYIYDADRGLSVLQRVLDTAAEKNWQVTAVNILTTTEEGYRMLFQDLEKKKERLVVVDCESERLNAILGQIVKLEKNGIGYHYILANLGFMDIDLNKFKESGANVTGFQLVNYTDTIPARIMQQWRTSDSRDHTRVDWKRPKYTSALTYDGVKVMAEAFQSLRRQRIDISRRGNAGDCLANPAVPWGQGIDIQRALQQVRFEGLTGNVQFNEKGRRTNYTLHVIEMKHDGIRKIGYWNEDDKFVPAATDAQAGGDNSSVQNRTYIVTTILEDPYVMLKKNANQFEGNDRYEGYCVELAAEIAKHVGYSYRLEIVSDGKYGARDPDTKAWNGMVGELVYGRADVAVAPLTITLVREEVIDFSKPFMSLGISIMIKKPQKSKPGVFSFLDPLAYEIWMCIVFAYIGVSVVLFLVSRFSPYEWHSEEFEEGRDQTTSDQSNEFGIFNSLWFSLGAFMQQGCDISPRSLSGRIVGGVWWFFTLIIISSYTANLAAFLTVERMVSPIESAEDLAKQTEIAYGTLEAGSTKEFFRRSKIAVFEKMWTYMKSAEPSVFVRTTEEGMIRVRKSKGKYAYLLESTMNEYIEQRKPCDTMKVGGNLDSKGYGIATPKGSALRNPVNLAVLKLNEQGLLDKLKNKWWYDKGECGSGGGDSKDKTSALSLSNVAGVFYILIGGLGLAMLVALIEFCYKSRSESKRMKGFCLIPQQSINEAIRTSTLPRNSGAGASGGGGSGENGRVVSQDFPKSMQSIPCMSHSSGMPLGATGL
Sequence of CFPGluA2(R) (GluA2(R) subunit with CFP inserted between signal peptide and N-terminal domain) (P19491 22-883): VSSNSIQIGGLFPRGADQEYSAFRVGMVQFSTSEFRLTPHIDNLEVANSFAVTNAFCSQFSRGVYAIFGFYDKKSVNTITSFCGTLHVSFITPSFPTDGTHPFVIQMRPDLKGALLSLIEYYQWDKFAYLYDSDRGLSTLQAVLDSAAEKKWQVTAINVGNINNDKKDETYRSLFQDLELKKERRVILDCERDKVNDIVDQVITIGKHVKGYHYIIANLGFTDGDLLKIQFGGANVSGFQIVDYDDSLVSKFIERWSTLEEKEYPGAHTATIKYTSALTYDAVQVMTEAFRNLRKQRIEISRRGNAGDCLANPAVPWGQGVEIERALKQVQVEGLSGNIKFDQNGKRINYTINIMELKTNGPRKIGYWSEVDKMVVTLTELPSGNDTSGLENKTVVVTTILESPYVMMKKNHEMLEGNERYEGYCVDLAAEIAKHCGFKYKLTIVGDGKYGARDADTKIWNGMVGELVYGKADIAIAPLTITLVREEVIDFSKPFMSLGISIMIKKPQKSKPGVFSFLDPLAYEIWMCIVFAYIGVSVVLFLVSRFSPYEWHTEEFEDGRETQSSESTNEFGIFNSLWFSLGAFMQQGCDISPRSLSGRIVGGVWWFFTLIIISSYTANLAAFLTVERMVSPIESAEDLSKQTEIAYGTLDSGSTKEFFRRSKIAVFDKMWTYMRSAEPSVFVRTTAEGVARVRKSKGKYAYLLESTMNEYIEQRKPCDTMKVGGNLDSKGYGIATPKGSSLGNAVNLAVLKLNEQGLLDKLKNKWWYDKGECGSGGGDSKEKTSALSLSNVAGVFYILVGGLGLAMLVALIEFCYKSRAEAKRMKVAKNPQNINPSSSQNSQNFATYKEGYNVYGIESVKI
Sequence of HALOGluA2(R) (GluA2(R) subunit with HALO domain inserted between signal peptide and N-terminal domain) (rat) (P19491 22-883): as above

| Substance | CFP (donor) lifetime mean in the presence of the acceptor AF488 [1] | E FRET [1] [%] | CFP (donor) lifetime mean in the presence of the acceptor AF488 [2] | E FRET [2] [%] |
| --- | --- | --- | --- | --- |
| CFPGluA1 (GluA1 subunit with CFP inserted between signal peptide and N-terminal domain) (from UniProt P19490 19-907) (receptor) | 2.03 | 38.5 |  |  |
| CFPGluA2(R) (GluA2(R) subunit with CFP inserted between signal peptide and N-terminal domain) (from UniProt P19491 22-883) (receptor) |  |  | 2.51 | 27 |
